{"source": "patent US20250018005A1", "key": {"[1]": {"target": "gp120, a protein in the HIV envelope (HIV)", "test": "competition ELISA, Q-GRFT binding to gp120, PBS control (no α-mannan)"}, "[2]": {"target": "gp120, a protein in the HIV envelope (HIV)", "test": "competition ELISA, Q-GRFT binding to gp120 in the presence of α-mannan at 0.005 (printed g/mL; the legend of FIG. 3 prints µg/mL)"}}, "data": [{"substance": "Q-Griffithsin (Q-GRFT), recombinant oxidation-resistant variant of griffithsin (M78Q) (from UniProt P84801 1-121)", "values": [{"measurement": "EC50", "setting": "[1]", "value": 72.5, "unit": "µg/mL"}, {"measurement": "EC50", "setting": "[2]", "value": 79.3, "unit": "µg/mL"}]}]}
